For one molecule, Kd results are on record in PMC7145567.

By Kd is commonly meant the constant that tells how readily two partners part at equilibrium.

The target in this data set is HMGA1a, non-phosphorylated (wt) (UniProt P17096 1-107). In words: ITC.
Chain of HMGA1a, non-phosphorylated (wt) (P17096 whole entry): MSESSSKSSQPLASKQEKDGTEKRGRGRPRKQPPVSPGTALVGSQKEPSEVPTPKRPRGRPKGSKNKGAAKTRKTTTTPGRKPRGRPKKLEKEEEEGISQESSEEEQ

B1: PRD2 element of NFkB promoter (dsDNA)
DNA 1: GGGAAATTCCTC
DNA 2: GAGGAATTTCCC
Regarding B1, the Kd was roughly 100 nM.
